Test results: patent US20170182124A1, “FGF21 Derivatives and Uses Thereof” (Novo Nordisk A/S, priority 2014, published 2017)
Residue numbers refer to the chain shown, from its start.

B1: S{Beta-169}-[2-[2-[[2-[2-[2-[[2-[2-[2-[[(4S)-4-carboxy-4-(15-carboxypentadecanoyl-amino)butanoyl]amino]ethoxy]ethoxy]acetyl]amino]ethoxy]ethoxy]acetyl]amino]-ethylamino]-2-oxoethyl]-Ala[Gln121,Leu168, … (protein)
chain: HPIPDSSPLLQFGGQVRQRYLYTDDAQQTEAHLEIREDGTVGGAADQSPESLLQLKALKPGVIQILGVKTSRFLCQRPDGALYGSLHFDPEACSFRELLLEDGYNVYQSEAHGLPLHLPGQKSPHRDPAPRGPARFLPLPGLPPALPEPPGILAPQPPDVGSSDPLSLCGPSQGRSPSYAS
B2: 12-[[4-[[(1S)-4-[2-[2-[2-[2-[2-[2-(2-acetamidoethylamino)-2-oxo-ethoxy]ethoxy]ethylamino]-2-oxo-ethoxy]ethoxy]ethylamino]-1-carboxy-4-oxo-butyl]carbamoyl]cyclohexyl]methylamino]-12-oxo-dodecanoic … (protein)
chain: B1 chain with C169V, A180C
B3: 16-[[4-[[(1S)-4-[2-[2-[2-[2-[2-[2-(2-acetamidoethylamino)-2-oxo-ethoxy]ethoxy]ethylamino]-2-oxo-ethoxy]ethoxy]ethylamino]-1-carboxy-4-oxo-butyl]carbamoyl]cyclohexyl]methylamino]-16-oxo-hexadecanoic … (protein)
chain: B1 chain with C169V, A180C
B4: 20-[[4-[[(1S)-4-[2-[2-[2-[2-[2-[2-[[(1S)-5-[(2-acetamido]-1-carboxy-pentyl]amino]-2-oxo-ethoxy]ethoxy]ethylamino]-2-oxo-ethoxy]ethoxy]ethylamino]-1-carboxy-4-oxo-butyl]carbamoyl]cyclohexyl]methylamino … (protein)
chain: B1 chain with C169V, A180C
B5: 4-[10-[[4-[2-[2-[2-[2-[2-[2-[[(1S)-5-acetamido-1-carboxy-pentyl]amino]-2-oxo-ethoxy]ethoxy]ethylamino]-2-oxo-ethoxy]ethoxy]ethylamino]-4-oxo-butyl]sulfonylamino]-10-oxo-decoxy]benzoic … (protein)
chain: B1 chain with C169V, A180C
B6: 4-[10-[[(1S)-4-[2-[2-[2-[2-[2-[2-[[(1S)-5-acetamido-1-carboxy-pentyl]amino]-2-oxo-ethoxy]ethoxy]ethylamino]-2-oxo-ethoxy]ethoxy]ethylamino]-1-carboxy-4-oxo-butyl]amino]-10-oxo-decoxy]benzoic … (protein)
chain: B1 chain with C169V, A180C
B7: 20-[[(1S)-4-[2-[2-[2-[2-[2-[2-[[(1S)-5-acetamido-1-carboxy-pentyl]amino]-2-oxo-ethoxy]ethoxy]ethylamino]-2-oxo-ethoxy]ethoxy]ethylamino]-1-carboxy-4-oxo-butyl]amino]-20-oxo-icosanoic … (protein)
chain: B1 chain with C169V, A180C
B8: 12-[[(1S)-4-[2-[2-[2-[2-[2-[2-[[(1S)-5-acetamido-1-carboxy-pentyl]amino]-2-oxo-ethoxy]ethoxy]ethylamino]-2-oxo-ethoxy]ethoxy]ethylamino]-1-carboxy-4-oxo-butyl]amino]-12-oxo-dodecanoic … (protein)
chain: B1 chain with C169V, A180C
B9: (2S)-6-acetamido-2-[[2-[2-[2-[[2-[2-[2-[[(4S)-4-carboxy-4-(16-sulfohexadecanoylamino)butanoyl]amino]ethoxy]ethoxy]acetyl]amino]ethoxy]ethoxy]acetyl]amino]hexadecanoic … (protein)
chain: B1 chain with C169V, A180C
B10: 18-[[4-[[(1S)-4-[2-[2-[2-[2-[2-[2-[[(1S)-5-[(2-acetamido]-1-carboxy-pentyl]amino]-2-oxo-ethoxy]ethoxy]ethylamino]-2-oxo-ethoxy]ethoxy]ethylamino]-1-carboxy-4-oxo-butyl]carbamoyl]cyclohexyl]methylamino … (protein)
chain: B1 chain with C169V, A180C
B11: 4-[10-[[4-[2-[2-[2-[2-[2-[2-[[(1S)-5-acetamido-1-carboxy-pentyl]amino]-2-oxo-ethoxy]ethoxy]ethylamino]-2-oxo-ethoxy]ethoxy]ethylamino]-4-oxo-butyl]sulfonylamino]-10-oxo-decoxy]benzoic … (protein)
chain: B1 chain with C169V, S181C
B12: 16-[[4-[[(1S)-4-[2-[2-[2-[2-[2-[2-[[(1S)-5-[(2-acetamido]-1-carboxy-pentyl]amino]-2-oxo-ethoxy]ethoxy]ethylamino]-2-oxo-ethoxy]ethoxy]ethylamino]-1-carboxy-4-oxo-butyl]carbamoyl]cyclohexyl]methylamino … (protein)
chain: B1 chain with C169V, A180C
B13: 20-[[(1S)-4-[[(1S)-4-[2-[2-[2-[2-[2-[2-[[(1S)-5-acetamido-1-carboxy-pentyl]amino]-2-oxo-ethoxy]ethoxy]ethylamino]-2-oxo-ethoxy]ethoxy]ethylamino]-1-carboxy-4-oxo-butyl]amino]-1-carboxy-4-oxo-butyl]ami … (protein)
chain: B1 chain with C169V, A180C
B14: 4-[10-[[(1S)-4-[2-[2-[2-[2-[2-[2-[[(1S)-5-acetamido-1-carboxy-pentyl]amino]-2-oxo-ethoxy]ethoxy]ethylamino]-2-oxo-ethoxy]ethoxy]ethylamino]-1-carboxy-4-oxo-butyl]amino]-10-oxo-decoxy]benzoic … (protein)
chain: B1 chain with C169V, S181C

Biological target: FGF receptor/BKL complex
Sequence (Q86Z14 whole entry, one chain of several): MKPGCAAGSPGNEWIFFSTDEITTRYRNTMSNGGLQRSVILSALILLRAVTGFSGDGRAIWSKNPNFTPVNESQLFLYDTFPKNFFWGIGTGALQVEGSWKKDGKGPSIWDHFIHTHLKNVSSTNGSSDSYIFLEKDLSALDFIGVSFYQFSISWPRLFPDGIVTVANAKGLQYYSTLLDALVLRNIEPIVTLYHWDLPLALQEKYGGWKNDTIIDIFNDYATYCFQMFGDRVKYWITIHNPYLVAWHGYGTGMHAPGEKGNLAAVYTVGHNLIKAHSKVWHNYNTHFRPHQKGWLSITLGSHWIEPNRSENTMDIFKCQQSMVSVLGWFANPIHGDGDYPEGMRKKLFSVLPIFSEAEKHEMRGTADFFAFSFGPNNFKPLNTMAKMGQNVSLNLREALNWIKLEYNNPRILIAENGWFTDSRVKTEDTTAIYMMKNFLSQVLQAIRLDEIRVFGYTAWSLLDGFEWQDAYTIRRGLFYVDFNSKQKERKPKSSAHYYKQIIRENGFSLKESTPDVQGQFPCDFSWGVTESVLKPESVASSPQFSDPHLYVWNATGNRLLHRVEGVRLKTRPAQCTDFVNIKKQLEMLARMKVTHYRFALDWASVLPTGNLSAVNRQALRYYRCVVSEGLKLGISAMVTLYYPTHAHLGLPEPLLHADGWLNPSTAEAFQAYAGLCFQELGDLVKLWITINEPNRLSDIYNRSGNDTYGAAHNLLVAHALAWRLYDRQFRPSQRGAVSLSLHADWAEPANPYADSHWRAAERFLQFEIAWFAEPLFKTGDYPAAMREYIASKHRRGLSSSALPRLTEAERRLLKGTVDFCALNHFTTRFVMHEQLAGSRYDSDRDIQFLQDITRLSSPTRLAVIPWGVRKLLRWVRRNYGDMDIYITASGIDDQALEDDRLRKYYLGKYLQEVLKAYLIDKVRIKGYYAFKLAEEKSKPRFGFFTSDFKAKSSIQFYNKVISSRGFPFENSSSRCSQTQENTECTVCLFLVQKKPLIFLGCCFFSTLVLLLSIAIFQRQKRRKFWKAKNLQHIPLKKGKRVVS
Experiment: FGF receptor potency in an Erk phosphorylation assay in HEK293 overexpressing human BKL
Format: cell-based
Conditions: HEK293/BKL cells, pERK after 12 minutes, absence of HSA; read-out: EC50
Description: In order to test the binding of the FGF21 derivatives to albumin, the assay was performed in the absence of serum albumin as well as in the presence of human serum albumin (HSA) (0.1% final assay concentration). An increase in EC50 value (decrease in potency) in the presence of serum albumin for FGF21 derivatives would indicate binding to serum albumin and represents a method to predict a protracted pharmacokinetic profile of the test substance in animal models. MetFGF21 (SEQ ID NO:2) is included for reference.
HEK293 cells endogenously express several FGF receptors, including FGFR1c, FGFR3c and FGFR4. These cells are unresponsive to FGF21 until transfected with the co-receptor beta-klotho (BKL). Activation of the FGF receptor/BKL complex leads to activation of the MAPK/ERK signalling pathway and phosphorylation of ERK. The level of phosphorylated ERK (pERK) at a given time point increases with increasing concentrations of FGF21. As described below the level of pERK is measured after 12 minutes of stimulation with a range of FGF21 analogue concentrations.
The HEK293/beta-klotho cells are seeded with 30.000 cells/well in 96 well plates in DMEM (BioWhittaker #BE12-604F/U1), supplemented with 10% FCS (Gibco #16140-071), 1% penicillin/streptomycin (Gibco #15140), 100 µg/ml Hygromycin B, (Calbiochem, # 400052). Two days later and 2 hours before addition of compound the cell medium is exchanged with 100 ∞l basal medium (DMEM (BioWhittaker #BE12-604F/U1)). The FGF21 analogues are diluted in assay medium (DMEM (BioWhittaker #BE12-604F/U1) supplemented with 0.02% Tween20), warmed to 37° C., added to the cells (100 μl) and incubated at 37° C. for 12 minutes. The FGF21 derivatives were also tested in the presence of 0.1% HSA (Sigma—A1887). All medium is quickly removed and 50 μl lysis buffer is added pr. well. The plate is shaken for 5 minutes and the lysate is ready for measurement of pERK. pERK is measured in 384 well plates with the AlphaScreen SureFire kit (PerkinElmer #TGRES10K). This kit is based on ERK and pERK specific antibodies coupled to donor and acceptor beads. The presence of pERK will bring acceptor and donor beads in close proximity and a signal is generated that is read on EnVision. The data are analysed using GraphPad Prism and the potency of the FGF21 proteins is described as absolute EC50 value.

| Molecule | EC50 [nM] |
| --- | --- |
| B1 | 25 |
| B2 | 4 |
| B3 | 3.5 |
| B4 | 4 |
| B5 | 3.2 |
| B6 | 5 |
| B7 | 6.1 |
| B8 | 8.4 |
| B9 | 4.2 |
| B10 | 4 |
| B11 | 24.7 |
| B12 | 4 |
| B13 | 10.3 |
| B14 | 26.4 |

Same assay, conditions: HEK293/BKL cells, pERK after 12 minutes, presence of 0.1% HSA; read-out: EC50 (0.1% HSA)

| Molecule | EC50 [nM] |
| --- | --- |
| B1 | 20 |
| B2 | 4.7 |
| B3 | 3.2 |
| B5 | 4 |
| B6 | 3 |
| B7 | 52.5 |
| B8 | 3.4 |
| B9 | 7.1 |
| B10 | 14 |
| B11 | 132 |
| B12 | 2.1 |
| B13 | 65.5 |
| B14 | 138 |
